How the values were obtained:
[1] = target: human endothelial cells (HUVECs); experiment: binding to HUVEC; the column prints only 'HUVEC (nM)'
[2] = target: T1, VEGFR2 (on PAE-VEGFR2 cells) (UniProt P35968 20-1356, limits assumed); experiment: binding to PAE-VEGFR2 cells; the column prints only 'VEGFR2 (nM)'
T1 construct: whole, on cells

[3] = target: T2, VEGFR1 (on PAE-VEGFR1 cells) (UniProt P17948 27-1338, limits assumed); experiment: binding to PAE-VEGFR1 cells; the column prints only 'VEGFR1 (nM)', the text calls it an affinity
T2 construct: whole, on cells
T2 sequence (P17948 27-1338 limits assumed): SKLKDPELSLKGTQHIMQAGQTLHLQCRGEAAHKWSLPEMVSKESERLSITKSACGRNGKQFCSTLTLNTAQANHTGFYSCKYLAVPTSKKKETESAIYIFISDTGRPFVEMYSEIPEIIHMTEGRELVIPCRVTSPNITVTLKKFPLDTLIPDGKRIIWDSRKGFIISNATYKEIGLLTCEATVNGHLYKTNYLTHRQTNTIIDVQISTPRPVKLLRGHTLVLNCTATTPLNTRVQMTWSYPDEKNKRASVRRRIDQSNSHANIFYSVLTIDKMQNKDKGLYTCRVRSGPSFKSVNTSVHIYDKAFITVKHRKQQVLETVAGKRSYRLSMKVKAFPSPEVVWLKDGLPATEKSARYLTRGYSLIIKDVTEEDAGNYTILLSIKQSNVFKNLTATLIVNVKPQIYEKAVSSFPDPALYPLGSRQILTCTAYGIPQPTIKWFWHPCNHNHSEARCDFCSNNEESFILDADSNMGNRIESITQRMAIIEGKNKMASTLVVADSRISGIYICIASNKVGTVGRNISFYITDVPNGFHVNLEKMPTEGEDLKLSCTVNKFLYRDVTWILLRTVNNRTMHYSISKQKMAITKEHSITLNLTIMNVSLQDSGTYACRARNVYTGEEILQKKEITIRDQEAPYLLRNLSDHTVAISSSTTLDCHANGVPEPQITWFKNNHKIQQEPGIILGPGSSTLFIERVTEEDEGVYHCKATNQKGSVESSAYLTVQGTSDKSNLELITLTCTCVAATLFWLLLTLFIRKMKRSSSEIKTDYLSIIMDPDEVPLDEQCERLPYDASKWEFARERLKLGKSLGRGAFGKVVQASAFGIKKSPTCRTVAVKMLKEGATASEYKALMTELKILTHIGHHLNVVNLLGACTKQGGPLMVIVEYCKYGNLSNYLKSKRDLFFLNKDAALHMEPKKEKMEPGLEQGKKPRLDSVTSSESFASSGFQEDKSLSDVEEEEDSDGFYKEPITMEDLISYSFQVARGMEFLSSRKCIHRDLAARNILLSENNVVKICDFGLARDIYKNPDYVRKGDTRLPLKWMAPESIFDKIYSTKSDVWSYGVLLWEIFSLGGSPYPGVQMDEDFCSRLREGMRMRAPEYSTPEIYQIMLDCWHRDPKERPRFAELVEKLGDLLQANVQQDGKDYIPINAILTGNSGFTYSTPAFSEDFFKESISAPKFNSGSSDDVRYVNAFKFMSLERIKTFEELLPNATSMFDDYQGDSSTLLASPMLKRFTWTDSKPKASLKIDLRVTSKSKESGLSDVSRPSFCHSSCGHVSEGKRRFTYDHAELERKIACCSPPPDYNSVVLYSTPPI

[4] = target: human endothelial cells (HUVECs); experiment: cell binding assay on human endothelial cells

T1 sequence (P35968 20-1356 limits assumed): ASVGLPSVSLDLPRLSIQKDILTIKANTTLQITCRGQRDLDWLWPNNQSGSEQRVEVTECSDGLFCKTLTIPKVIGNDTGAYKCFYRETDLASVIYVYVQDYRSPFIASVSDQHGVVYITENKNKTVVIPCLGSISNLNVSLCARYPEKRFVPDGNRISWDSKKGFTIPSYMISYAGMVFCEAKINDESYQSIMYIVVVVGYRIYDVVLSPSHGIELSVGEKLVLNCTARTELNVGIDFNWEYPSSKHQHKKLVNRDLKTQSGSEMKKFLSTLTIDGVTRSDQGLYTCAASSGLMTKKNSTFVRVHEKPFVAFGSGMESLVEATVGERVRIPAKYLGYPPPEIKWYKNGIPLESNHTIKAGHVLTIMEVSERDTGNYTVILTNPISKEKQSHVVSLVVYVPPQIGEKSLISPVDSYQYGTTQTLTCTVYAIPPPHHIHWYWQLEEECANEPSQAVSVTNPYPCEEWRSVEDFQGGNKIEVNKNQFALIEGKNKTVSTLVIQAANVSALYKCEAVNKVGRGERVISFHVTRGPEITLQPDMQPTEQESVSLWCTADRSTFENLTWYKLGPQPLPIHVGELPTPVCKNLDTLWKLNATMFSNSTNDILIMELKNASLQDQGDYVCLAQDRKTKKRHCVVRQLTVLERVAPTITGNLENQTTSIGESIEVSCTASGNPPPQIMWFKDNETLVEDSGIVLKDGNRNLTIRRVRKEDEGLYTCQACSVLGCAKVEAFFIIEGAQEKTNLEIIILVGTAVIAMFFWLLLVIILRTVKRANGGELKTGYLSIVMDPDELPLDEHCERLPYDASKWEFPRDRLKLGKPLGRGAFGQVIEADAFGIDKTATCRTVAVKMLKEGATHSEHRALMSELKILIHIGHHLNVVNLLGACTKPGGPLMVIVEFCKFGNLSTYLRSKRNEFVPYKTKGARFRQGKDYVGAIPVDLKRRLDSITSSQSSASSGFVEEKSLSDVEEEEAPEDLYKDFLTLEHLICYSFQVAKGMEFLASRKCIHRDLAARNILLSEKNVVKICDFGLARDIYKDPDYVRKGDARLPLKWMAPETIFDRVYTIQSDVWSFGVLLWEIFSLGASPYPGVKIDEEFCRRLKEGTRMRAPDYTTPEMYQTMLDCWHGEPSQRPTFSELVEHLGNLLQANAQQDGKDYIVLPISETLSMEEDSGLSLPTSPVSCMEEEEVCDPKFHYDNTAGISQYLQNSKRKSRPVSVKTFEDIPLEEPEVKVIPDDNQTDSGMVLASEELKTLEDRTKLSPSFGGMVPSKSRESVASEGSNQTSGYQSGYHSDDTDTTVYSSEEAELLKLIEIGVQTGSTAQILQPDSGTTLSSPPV

Kd [1] [nM] | Kd [2] [nM] | Kd [3] [nM] | Kd [4] [nM] | fold improvement of KD against the construct with the original linker [4] [fold] | Binder
0.4 | 0.5 | 0.55 | – | – | scVEGFMUT-E (mE, SEQ ID NO.: 55) (ligand, Chain 1: F36L, E44G, D63G, Q87R; also called scVEGFmE) EVVKAMDVYQRSYCHPIETLVDILQEYPDEIGYIFKPSCVPLMRCGGCCNGAGLECVPTEESNITMQIMRIKPHRGQHIGEMSFLQHNKCECRPKKDGSTSGSGKSSEGKGEVVRFMDVYQRSYCHPIETLVDIFQEYPNEIEYAFKPSCVPLMRCGGCCNNEGLECVPTEESNITMQIMRAKPHQGQHIGEMSFLQHNKCECRPKKD
– | – | – | 0.32 | – | scVEGF-mE7I (SEQ ID NO: 75), construct with the original linker (ligand) EVVKAMDVYQRSYCHPIETLVDILQEYPDEIGYIFKPSCVPLMRCGGCCNGAGLECVPTEESNITMQIMRIKPHRGQHIGEMSFLQHNKCECRPKKDGGGGSGGGGSGGGGSGGGGSEVVRFMDVYQRSYCHPIETLVDIFQEYPNEIEYAFKPSCVPLMRCGGCCNNEGLECVPTEESNITMQIMRPSVRRGDSPASHIGEMSFLQHNKCECRPKKD
– | – | – | 0.16 | 2 | scVEGF-mE7I construct containing the L3A linker (ligand) EVVKAMDVYQRSYCHPIETLVDILQEYPDEIGYIFKPSCVPLMRCGGCCNGAGLECVPTEESNITMQIMRIKPHRGQHIGEMSFLQHNKCECRPKKDGGGGSGGGGSGGGGSGGGGSEVVRFMDVYQRSYCHPIETLVDIFQEYPNEIEYAFKPSCVPLMRCGGCCNNEGLECVPTEESNITMQIMRPSVRRGDSPASHIGEMSFLQHNKCECRPKKD

From patent publication US20180369334A1 (Stanford University, published 2018)
